Measured values taken from publication doi:10.1101/2025.09.11.675134, “Biodistribution-Driven Discovery Identifies a Glycosidase-Cleavable Linker to Reprogram Radiotheranostics” (bioRxiv, 2025).
Like-named read-outs stand apart in the source and are kept apart here. Positions of bridges follow the written chain, without caps; N, C: chain ends. Non-standard residues stand in square brackets, D forms with d. Residues, ends and D or L forms follow the SMILES beside them. *: point of attachment. X1 = C[C@H](CCC(=O)*)[C@H]1CC[C@H]2[C@@H]3[C@H](O)C[C@@H]4C[C@@H](NC(=O)CNC(=O)CN5CCN(CC(=O)O)CCN(CC(=O)O)CCN(CC(=O)O)CC5)CC[C@]4(C)[C@H]3C[C@H](O)[C@]12C; DOTA = O=C(O)CN1CCN(CC(=O)O)CCN(CC(=O)*)CCN(CC(=O)O)CC1

Experiment: Ex vivo biodistribution screen of 111In-labeled DOTA-TATE derivatives in normal mice
Set-up: species or system athymic nude mice
Details: 2 h post-injection; for tissue uptake at 2 h: athymic nude, mouse, iv, 1 ug per mouse, total radioactivity; for Relative kidney retention, % rel. to DOTA-TATE: normal mice, 111In-DOTA-TATE set as 100%
Method: The panel of 10 compounds were then tested in an initial biodistribution screen of 9 organs assessed in non-tumor-bearing mice at specific timepoints following administration of the radioconjugates. Each agent was initially labeled with ^111In, a long-lived gamma-emitting radioisotope suitable for biodistribution studies, with high radiochemical yields and purity (Fig. S12). The compounds were then dosed (1.55 ± 0.12 MBq; 1 μg per mouse) in healthy athymic nude mice via intravenous (i.v.) injection in phosphate-buffered saline (PBS; vehicle). After 2 hours, the mice were sacrificed and ex vivo biodistribution analysis was performed (Fig. 2). […] This was an expected finding because this variant was designed to bind serum albumin.
Radiolabeling and In Vivo Evaluation of DOTA-TATE Variants:
Biodistribution, PET Quantification, and Dosimetry
Radiolabeling: To perform the initial biodistribution screen, radiolabeling of 10 compounds, including DOTA-TATE, was carried out using 111In (Cardinal Health, Arbutus, MD, USA), an affordable and readily available gamma -emitting radioisotope with a moderate half -life (2.83 days), which affords efficient DOTA radiolabeling and facilitates handling. 111InCl3 (28 – 36 MBq) was diluted with 0.4 M NH 4OAc buffer (pH 5.2) and combined with DOTA -TATE variants (20 μg). The solution was mixed well and then incubated at 90 °C for 30 min.
Radiolabeling efficiency and radiochemical purity were determined by radio -TLC and radio - HPLC. Radiochemical yield was >95% and the material was used without further purification.
The specific activity was 1.55 ± 0.12 TBq/g (41.9 ± 3.2 Ci/g). […]
Radio-instant thin-layer chromatography (radio-iTLC) was performed using silicic acid-impregnated glass microfiber paper strips (iTLC-SA, Varian, Lake Forest, CA, USA) as the stationary phase, and 50 mM EDTA in 100 mM NH4OAc (pH 5.5) as the mobile phase, analyzed with a radio-TLC scanner (AR-2000, Eckert-Ziegler, Wilmington, MA, USA). For Ac-225, equilibration was allowed for at least 12 hours before scanning the TLC strips to confirm initial scans. Radio-HPLC analysis (Agilent 1260 Infinity II, Agilent Technologies Inc., Santa Clara, CA, USA) was conducted on a TSK- Octadecyl-4PW column (5 µm, 4.6 mm ID × 15 cm, Tosoh
Co. Tokyo, Japan) with gradient elution using 0.1% trifluoroacetic acid in water as mobile phase A and 0.1% trifluoroacetic acid in acetonitrile as Mobile phase B. The elution sequence was 0-5 […]
PET imaging and biodistribution: For initial biodistribution screen studies, normal mice were administered 1.4 – 1.8 MBq (1 μg) of 111In-DOTA-TATE variants via tail vein injection and biodistribution studies were conducted at 2 hours post -injection (n = 2 – 4 per cohort).
For studies involving three variants (DOTA -TATE, DOTA-MVK(ε)-TATE, and DOTA-β-Gal-TATE), AR42J cells (5 × 10^6 cells per mouse) were subcutaneously inoculated into the right shoulder of the mice. Tumors were allowed to grow for 3 weeks, reaching a volume of 100 –200 mm³ before being used in subsequent experiments. For biodistribution or PET imaging studies, mice bearing subcutaneous AR42J tumors were administered 1.4 – 1.8 MBq (1 μg) of 111In-labeled DOTA-TATE variants or 2.7 – 4.9 MBq (1 μg) of 86Y-labeled DOTA-TATE variants via tail vein injection. Biodistribution studies with 111In-labeled DOTA -TATE variants were performed 1 hour post -injection (n = 3 per cohort), while studies with 86Y-labeled DOTA-TATE variants were conducted at 1, 4, and 24 hours post -injection (n = 3 per cohort). Mice were euthanized by CO2 asphyxiation, and 10 tissues, including tumors, were collected. All samples were weighed and counted on a gamma counter (2480 Wizard 3, Perkin Elmer Inc., Waltham, MA, USA). Results are presented as percentage of injected activity per gram (%IA/g) and mean values ± standard deviations.
PET imaging to assess the uptake of three 86Y-labeled DOTA-TATE variants (2.7 – 4.9 MBq, 1 […]

[1] = blood, normal athymic nude mice, i.v. 1 μg (1.4–1.8 MBq), ex vivo gamma counting, mean, n = 2–4, read-out: Blood uptake
[2] = kidney, normal athymic nude mice, i.v. 1 μg, ex vivo, mean (± SD), n = 2–4, read-out: Kidney uptake
[3] = femur, normal athymic nude mice, i.v. 1 μg, ex vivo, mean, n = 2–4, read-out: Femur uptake
[4] = heart, normal athymic nude mice, i.v. 1 μg, ex vivo, mean, n = 2–4, read-out: Heart uptake
[5] = intestine, normal athymic nude mice, i.v. 1 μg, ex vivo, mean, n = 2–4, read-out: Intestine uptake
[6] = liver, normal athymic nude mice, i.v. 1 μg, ex vivo, mean, n = 2–4, read-out: Liver uptake
[7] = lung, normal athymic nude mice, i.v. 1 μg, ex vivo, mean, n = 2–4, read-out: Lung uptake
[8] = muscle, normal athymic nude mice, i.v. 1 μg, ex vivo, mean, n = 2–4, read-out: Muscle uptake
[9] = spleen, normal athymic nude mice, i.v. 1 μg, ex vivo, mean, n = 2–4, read-out: Spleen uptake

Q: Which tissue uptake at 2 h [1] does the source give for C[C@H](CCC(=O)NCC(=O)N[C@H](Cc1ccccc1)C(=O)N[C@H]1CSSC[C@@H](C(=O)N[C@H](C(=O)O)[C@@H](C)O)NC(=O)[C@H]([C@@H](C)O)NC(=O)[C@H](CCCCN)NC(=O)[C@@H](Cc2c[nH]c3ccccc23)NC(=O)[C@H](Cc2ccc(O)cc2)NC1=O)[C@H]1CC[C@H]2[C@@H]3[C@H](O)C[C@@H]4C[C@@H](NC(=O)CNC(=O)CN5CCN(CC(=O)O)CCN(CC(=O)O)CCN(CC(=O)O)CC5)CC[C@]4(C)[C@H]3C[C@H](O)[C@]12C [DOTA-G-Chol-G-TATE] (X1-G[dF]CY[dW]KTCT-OH; disulfide 3-8) here?
A: 1.7 %ID/g

Q: What about the tissue uptake at 2 h [2] of the same compound?
A: 9.6 %ID/g

Q: With C[C@@H](O)[C@H](NC(=O)[C@@H]1CSSC[C@H](NC(=O)[C@@H](Cc2ccccc2)NC(=O)CNC(=O)[C@H](CC(=O)O)NC(=O)[C@H](CC(=O)O)NC(=O)[C@H](CC(=O)O)NC(=O)CNC(=O)CN2CCN(CC(=O)O)CCN(CC(=O)O)CCN(CC(=O)O)CC2)C(=O)N[C@@H](Cc2ccc(O)cc2)C(=O)N[C@H](Cc2c[nH]c3ccccc23)C(=O)N[C@@H](CCCCN)C(=O)N[C@@H]([C@@H](C)O)C(=O)N1)C(=O)O [DOTA-GDDDG-TATE] ({DOTA}-GDDDG[dF]CY[dW]KTCT-OH; disulfide 7-12) as the compound, how does the tissue uptake at 2 h [2] read?
A: 13 %ID/g

Q: Which tissue uptake at 2 h [2] does the source give for CSCC[C@H](NC(=O)CN1CCN(CC(=O)O)CCN(CC(=O)O)CCN(CC(=O)O)CC1)C(=O)N[C@H](C(=O)N[C@@H](CCCCNC(=O)CCCC(=O)N[C@H](Cc1ccccc1)C(=O)N[C@H]1CSSC[C@@H](C(=O)N[C@H](C(=O)O)[C@@H](C)O)NC(=O)[C@H]([C@@H](C)O)NC(=O)[C@H](CCCCN)NC(=O)[C@@H](Cc2c[nH]c3ccccc23)NC(=O)[C@H](Cc2ccc(O)cc2)NC1=O)C(=O)O)C(C)C [DOTA-MVK(ε)-TATE] here?
A: 4 %ID/g

Q: Which tissue uptake at 2 h [2] does the source give for CSCC[C@H](NC(=O)CN1CCN(CC(=O)O)CCN(CC(=O)O)CCN(CC(=O)O)CC1)C(=O)N[C@H](C(=O)N[C@@H](CCCCN)C(=O)N[C@H](Cc1ccccc1)C(=O)N[C@H]1CSSC[C@@H](C(=O)N[C@H](C(=O)O)[C@@H](C)O)NC(=O)[C@H]([C@@H](C)O)NC(=O)[C@H](CCCCN)NC(=O)[C@@H](Cc2c[nH]c3ccccc23)NC(=O)[C@H](Cc2ccc(O)cc2)NC1=O)C(C)C [DOTA-MVK-TATE] ({DOTA}-MVK[dF]CY[dW]KTCT-OH; disulfide 5-10) here?
A: 76 %ID/g

Q: Which tissue uptake at 2 h [2] does the source give for C[C@@H](O)[C@H](NC(=O)[C@@H]1CSSC[C@H](NC(=O)[C@@H](Cc2ccccc2)NC(=O)CN2CCN(CC(=O)O)CCN(CC(=O)O)CCN(CC(=O)O)CC2)C(=O)N[C@@H](Cc2ccc(O)cc2)C(=O)N[C@H](Cc2c[nH]c3ccccc23)C(=O)N[C@@H](CCCCN)C(=O)N[C@@H]([C@@H](C)O)C(=O)N1)C(=O)O [DOTA-TATE, reference compound] here?
A: 6.1 %ID/g

Q: Which tissue uptake at 2 h (in vivo, normal athymic nude mice, i.v. 1 μg, ex vivo, mean (± SD), n = 2–4, read-out: Kidney uptake) does the source give for C[C@@H](O)[C@H](NC(=O)[C@@H]1CSSC[C@H](NC(=O)[C@@H](Cc2ccccc2)NC(=O)CCCC(=O)Nc2cc(COC(=O)N(C)CCNC(=O)CN3CCN(CC(=O)O)CCN(CC(=O)O)CCN(CC(=O)O)CC3)ccc2O[C@@H]2O[C@H](CO)[C@H](O)[C@H](O)[C@H]2O)C(=O)N[C@@H](Cc2ccc(O)cc2)C(=O)N[C@H](Cc2c[nH]c3ccccc23)C(=O)N[C@@H](CCCCN)C(=O)N[C@@H]([C@@H](C)O)C(=O)N1)C(=O)O [DOTA-β-Gal-TATE] here?
A: 4.1 %ID/g

Q: For C[C@H](CCC(=O)NCC(=O)N[C@H](Cc1ccccc1)C(=O)N[C@H]1CSSC[C@@H](C(=O)N[C@H](C(=O)O)[C@@H](C)O)NC(=O)[C@H]([C@@H](C)O)NC(=O)[C@H](CCCCN)NC(=O)[C@@H](Cc2c[nH]c3ccccc23)NC(=O)[C@H](Cc2ccc(O)cc2)NC1=O)[C@H]1CC[C@H]2[C@@H]3[C@H](O)C[C@@H]4C[C@@H](NC(=O)CNC(=O)CN5CCN(CC(=O)O)CCN(CC(=O)O)CCN(CC(=O)O)CC5)CC[C@]4(C)[C@H]3C[C@H](O)[C@]12C [^111In-DOTA-Chol-TATE, metal not drawn] (X1-G[dF]CY[dW]KTCT-OH; disulfide 3-8), which tissue uptake at 2 h [3] is on record?
A: 0.36 %ID/g

Q: And the tissue uptake at 2 h [4]?
A: 0.55 %ID/g

Q: And the tissue uptake at 2 h [5]?
A: 0.83 %ID/g

Q: And the tissue uptake at 2 h [6]?
A: 1.32 %ID/g

Q: And the tissue uptake at 2 h [7]?
A: 1.86 %ID/g

Q: What about the tissue uptake at 2 h [8] of the same compound?
A: 0.15 %ID/g

Q: And the tissue uptake at 2 h [9]?
A: 0.48 %ID/g

Q: And the “Relative kidney retention, % rel. to DOTA-TATE” value?
A: 159%

Q: What does the source list for C[C@@H](O)[C@H](NC(=O)[C@@H]1CSSC[C@H](NC(=O)[C@@H](Cc2ccccc2)NC(=O)CNC(=O)[C@H](CC(=O)O)NC(=O)[C@H](CC(=O)O)NC(=O)[C@H](CC(=O)O)NC(=O)CNC(=O)CN2CCN(CC(=O)O)CCN(CC(=O)O)CCN(CC(=O)O)CC2)C(=O)N[C@@H](Cc2ccc(O)cc2)C(=O)N[C@H](Cc2c[nH]c3ccccc23)C(=O)N[C@@H](CCCCN)C(=O)N[C@@H]([C@@H](C)O)C(=O)N1)C(=O)O [^111In-DOTA-GDDDG-TATE, metal not drawn] ({DOTA}-GDDDG[dF]CY[dW]KTCT-OH; disulfide 7-12)?
A: tissue uptake at 2 h [1]: 0.05 %ID/g; tissue uptake at 2 h [3]: 0.07 %ID/g; tissue uptake at 2 h [4]: 0.04 %ID/g; tissue uptake at 2 h [5]: 0.11 %ID/g; tissue uptake at 2 h [6]: 0.07 %ID/g; tissue uptake at 2 h [7]: 0.25 %ID/g; tissue uptake at 2 h [8]: 0.02 %ID/g; tissue uptake at 2 h [9]: 0.05 %ID/g; Kidney uptake (normal athymic nude mice, i.v. 1 μg, ex vivo, mean (± SD), n = 2–4): 13.45 %IA/g; Relative kidney retention, % rel. to DOTA-TATE: 222%

Q: For C[C@@H](O)[C@H](NC(=O)[C@@H]1CSSC[C@H](NC(=O)[C@@H](Cc2ccccc2)NC(=O)[C@@H](Cc2ccc(O)cc2)NC(=O)CNC(=O)CN2CCN(CC(=O)O)CCN(CC(=O)O)CCN(CC(=O)O)CC2)C(=O)N[C@@H](Cc2ccc(O)cc2)C(=O)N[C@H](Cc2c[nH]c3ccccc23)C(=O)N[C@@H](CCCCN)C(=O)N[C@@H]([C@@H](C)O)C(=O)N1)C(=O)O [^111In-DOTA-GY*-TATE, metal not drawn] ({DOTA}-G[dY][dF]CY[dW]KTCT-OH; disulfide 4-9), which tissue uptake at 2 h [1] is on record?
A: 0.06 %ID/g

Q: And the tissue uptake at 2 h [3]?
A: 0.1 %ID/g

Q: What about the tissue uptake at 2 h [4] of the same compound?
A: 0.06 %ID/g

Q: And the tissue uptake at 2 h [5]?
A: 0.63 %ID/g

Q: What about the tissue uptake at 2 h [6] of the same compound?
A: 0.17 %ID/g

Q: What about the tissue uptake at 2 h [7] of the same compound?
A: 1.17 %ID/g

Q: What about the tissue uptake at 2 h [8] of the same compound?
A: 0.02 %ID/g

Q: And the tissue uptake at 2 h [9]?
A: 0.16 %ID/g

Q: And the “Relative kidney retention, % rel. to DOTA-TATE” value?
A: 865%
